Substrate in series [1]: O=[N+]([O-])c1ccc(O[C@H]2O[C@H](CO)[C@@H](O)[C@H](O)[C@@H]2O)cc1
As to the kind of experiment: 4NP-Man hydrolysis kinetics. The series is classed as biochemical, Bacteroides thetaiotaomicron. As to conditions: other: substrate 4NP-Man.

Substrate in series [2]: OC[C@H]1O[C@H](O[C@H]2[C@@H](O)[C@H](O)[C@@H](CO)O[C@@H]2O)[C@@H](O)[C@@H](O)[C@@H]1O
As to the kind of experiment: mannobiose hydrolysis kinetics. The class given is biochemical, Bacteroides thetaiotaomicron. As to conditions: other: most active mannobiose substrate.

B1: Bt1032 (Bacteroides thetaiotaomicron VPI-5482) (protein)
chain: GEGKAPPMDKEKSLLIDYVDPFIGTTNFGTTNPGAVCPNGMMSVVPFNVMGSADNTYDKDARWWSTPYEHTNCFFTGYSHVNLSGVGCPELGSLLLMPTTGELNVDYKEYGSKYKDEQASPGYYSNYLTKYNIKTEVSATPRTGIARFTFPKGESHILLNLGEGLTNESGAMLRRVSDSEIEGMKLLGTFCYNPQAVFPIYFVMRVNKVPATTGYWKKQRPMTGVEAEWDRDQGKYKLYTRYGKEIAGDDVGAYFTFETEEGEQVEVQMGVSFVSIENARLNLDKEQSGKNFEQVLSDARAQWNDDLSRITVEGGTDAQKTVFYTALYHLLIHPNVLQDVNGEYPAMESDQILTTKGTRYTVFSLWDTYRNVHQLLTLVYPERQMEMVRTMLDMYREHGWFPKWELYGRETLTMEGDPSIPVIVDTWMKGLRDFDVDLAYEAMYKSATLPGAENLMRPDNDDYMSKGYVPLREQYDNSVSHALEYYIADFALSRFADALGKKKDAEMFYKRSLGYKHYYSKEFGTFRPILPDGTFYSPFNPRQGENFEPNPGFHEGNSWNYTFYVPHDVYGLAKLMGGKKPFVNKLQMVFDEGLYDPANEPDIAYAHLFSYFKGEEWRTQKETQRLLDKYFTTKPDGIPGNDDTGTMSAWAIFNMIGFYPDCPGLPEYALTTPVFNKVTIRLDPKWYKENELVIESNRTGSETLYINKVLLDGKKFNKYRITHDELVHGKRLIFDLK
For the protein B1, in series [1] (enzyme Bt1032, pH 7.0), the Km was determined as 1700 ± 360 µM, the kcat was 0.006 ± 0.000633 s⁻¹ and the kcat/Km came to 3.5 M⁻¹ s⁻¹.

B2: Bt3963 (Bacteroides thetaiotaomicron VPI-5482) (protein)
chain: QQPVDYVNPIIGTNGMGHTFPGACTPFGWVQLSPDTDTIPHNVNGAYQKNAYEYCAGYQYRDKTIVGFSHTHLSGTGHSDLGDILLMPAVGDVKLNPGRADHPEEGYRSRFDHATEKATPGYYEVMLDDYGIKAQLTATQRTGVHKYTFPKGKDGHLILDLVHGIYNYDGKVLWANLRVENDTLLTGYRITNGWARTNYTYFAISLSQPIKDYGYKDKEKVLYNGFWRRFKLEKNFPEITGRKIVAYFNFETAKDPELVVKVALSAVSTEGAVKNLRAEASGKSFEQLAEAARTDWNNELDHFEIEGTPDQKAMFYTSLYHTMINPSVYMDVDGSYRGLDHNIHQAKGFTNYTIFSLWDTYRAEHPFLNLVKPERNADMVESMIKHEQQSVHGMLPIWSLMGNENWCMSGYHAVSVLADAITKGVFSNVDEALSAMVSTSTVPYYEGVADYMKLGYIPLDKSGTAASSTLEYAYDDWTIYQTALKAGNKEIADTYRKRALNYRNIYDTSIGFARPRYSDGTFKKEFDVLQTYGEGFIEGNSWNFSFHVPHDVFGMIDLMGGEKTFVQKLDELFSMHLPEKYYEHNEDITEECLVGGYVHGNEPSHHVPYLYAWTSQPWKTQYWLREILNKMYKNDINGLGGNDDCGQMSAWYLFSVMGFYPVCPGTDQYVLGAPYLPYLKLTLPNGKTLEIKAPGVSDKKRYVQSLKLNGESYDKMYITHEDILKGGVLEFKMSASPNKRRGVSVQDKPYSLTNGIN
B2: in series [1] (enzyme Bt3963, pH 7.0), the Km was 790 ± 80 µM, the kcat is 0.00045 ± 1.67e-05 s⁻¹ and the kcat/Km is 0.567 M⁻¹ s⁻¹.

B3: Bt3991 (Bacteroides thetaiotaomicron VPI-5482) (protein)
chain: MKLKTLLIGCFGGFIMLNSCTESPSVKDYSAYVNPFIGTGGHGHTFPGAVVPHGMIQPSPDTRIDGWDACSGYYYDDNTINGFSHTHVSGTGCCDYGDVLLMPTVGKPQYLTTDPESQKLAYASAFSHENETAEPGYYSVFLDTYQVKAEITATKRGAIHRYTFPESTESGFIIDLDYSLQRQTNYEMEIEVISDTEICGHKKTTYWAFDQYINFYAKFSKPFAYTLITDSVTMDNGKRLPVCKAVLHFNTKKDEEVLVKVGVSAVDIAGARKNVESEIPEWDFDKVRKDARTAWNNYLSKIDITTSDKEDKTIFYTALYHTAISPNLFTDADGRYLGMDLEVHQGDTINPLYTVFSLWDTFRALHPLMTIIDPNLNNQFINSLIRKHQEGGIYPMWDLASNYTGTMIGYHAVPVIVDAYMKGYRNFDAHEAYKASLRAAEYDTTGIKCPDLVLPHLMPKAKYYKNAIGYIPCDRENESVAKALEYAYDDWCISIFAEAMNDFENKAKYERFAKAYEFYFDKSTRFMRGLDSNGEWRTPFNPRASTHRSDDYCEGTAWQWTWFVPHDVEGLVKLMGGEDAFVEKLDSLFTVDSSLDGETTSADISGLIGQYAHGNEPSHHVIHLYNYVNRPWRTQELVDSVYRSQYANNVDGLSGNEDCGQMSAWYILNSMGFYQVCPGKPVYSIGRPAFDKAVINLPGEKTFSIVAKNNSKSNKYIESVLLNGKPLDTPFFGHQDIVAGGVMEIRMTDHPTQWGVRQ
As for B3, in series [1] (enzyme Bt3991, pH 7.0), the kcat came out at 0.0025 ± 0.00035 s⁻¹ and the kcat/Km is 0.917 M⁻¹ s⁻¹.

B4: Bt3130 (Bacteroides thetaiotaomicron VPI-5482) (protein)
chain: GEITKYVNPFIGTGAIDGGLSGNNYPGATSPFGMIQLSPDTSEAPNWGDASGYDYNRNTIFGFSHTRLSGTGASDLIDITLMPTSSGRTSSAFTHDEEKARPGYYQVMLKDENINAELTTTQRNGIHRYQYPAGKDAEIILDMDHSADKGSWGRRIINSQIRILNDHAVEGYRIITGWAKLRKIYFYMEFSSPILTSTLRDGGRVHENTAVINGTNLHGCFRFGQLNGKPLTCKVALSSVSMENARQNMEQEAPHWDFDRYVAAADADWEKQLGKIEVKGTEVQKEIFYTALYHTMIQPNTMSDVNGEYMAADYTTRKVANNETHYTTFSLWDTFRASHPLYTLLEPERVTDFVKSMIRQYEYYGYLPIWQLWGQDNYCMIGNHSIPVITDAILKGIPGIDMEKAYEAVYNSSVTSHPNSPFEVWEKYGFMPENIQTQSVSITLEQAFDDWCVAQLAAKLNKDADYQRFHKRSEYYRNLFHPKTKFFQSKNDKGEWIEPFDPYQYGGNGGHPFTEGNAWQYFWYVPHNIQALMELTGGTKAFEQKLDTFFTSTYKSEQMNHNASGFVGQYAHGNEPSHHVAYLYNFAGQPWKTQKYVSHILNTLYNNTSSGYAGNDDCGQMSAWYVFSAMGFYPVNPADGRYIIGSPLLDECTLKLAGNKEFRIRTIRKSPEDIYIQSVTLNGKKHKDFFITHQDIMNGGTMVFKMGKKPSGWGK
On to B4, for which, in series [1] (enzyme Bt3130, pH 7.0), the Km turned out to be 510 ± 97 µM, the catalytic constant (kcat) turned out to be 56.7 ± 3.17 s⁻¹ and the kcat/Km stood at 112000 M⁻¹ s⁻¹.

B5: Bt4092 (Bacteroides thetaiotaomicron VPI-5482) (protein)
chain: QLKDLVQYVNTLQGTDSNFGLSYGNTYPTTGMPYGMHMWSAQTGKNGDGFKYMYAVDKIRAFSQSHQCSPWVSDYAVYSFMPMVGELVVNQDARATKFSHDNEIAKPHYYKVTFDNGITTEMAPTTRGVHLRFSYPTTGDAYLVLDGYTDMSEIKIDPAKRQISGWVNNQRFVNDSKSFRNYFVVQFDKPFEDYGVWENQKDEVFPQKLDGAGKGYGAFIKFKKGSKVQAKAASSYISAEQALITLNKELGKDKNLEVTKARGQKTWNEVLNRIVVEGCTDEQMKTFYSCLFRANLFSRKFYERKENGEPYYYSPYNGKIYDGYMYTDNGFWDTFRSQFPLTNILHPTMQGRYMNALLAAQEQCGWLPSWSSPGETGGMLGNHSISLLADAWAKGIRDFDPEKALKAYAHEAMNKGPWGGANGRGFWKEYFQLGYVPYPESMGSSAQTMEYAYDDFCGYQLAKMVGNKHYQEVFARQMYNYKNVFDKSIGFMRGKGVDGKWQEPFDPLEWGGPFCEGNAWHYTWSVFHDVQGLIDLFGSDEKFTTKIDSVFTIPNIIKPGTYGGVIHEMKEMELANMGQYAHGNQPIQHMPYLYCYAGQPWKTQYWVRQIVERLYNSTEKGYPGDEDQGGMSSWYILSSLGIYAVCPGTDEYVIGSPLFKKATITMENGNKFVIEAPENSKENLYIQSATLNGRLLDKNYIHYDDIAEGGVLKFEMGSQPNKERCTSKYAAPFSLSKE
In the case of B5, in series [2] (enzyme Bt4092, pH 7.0), the Km was 2000 ± 450 µM, the kcat was found to be 1.83 s⁻¹ and the kcat/Km is 900 M⁻¹ s⁻¹.

B6: Bt3994 (Bacteroides thetaiotaomicron VPI-5482) (protein)
chain: EIDYTSYVNPFIGTDFTGNTYPGAQAPFGMVQLSPDNGLPGWDRISGYFYPDSTIAGFSHTHLSGTGAGDLYDISFMPVTLPYKEAEAPLGIYSKFSHDEESAYAGYYQVRLKDYHINVELTATERCGIQRYTFPKAEAAIFLNLKKAMNWDFTNDSHIEVVDSVTIQGYRYSDGWARDQRIYFRTRFSKPFDKVELDTTAIIKDKQHIGTAVIARFDFHTEEGEQILVNTAISGVSMEGAAKNLQAEVPENDFDKYLAETKANWNRQLGKIEVEGDNQDDKVNFYTALYHSMIAPTIYSDVDGAYYGPDKKVHQSDGWVNYSTFSLWDTYRAAHPLFTYTEPERVNDMVKSFIAFFEQNGRLPVWNFYGSETDMMIGYHAVPVIVDAYLKGIGNFDAEKALAACVATANLDNYRGIGLYKQLGYIPYNVTDHYNAENWSLSKTLEYAFDDYCIAEMANKMGKKEIADEFYKRSQNYKNVYNPATSFMQPRDDKGNFIKDFKADEYTPHICESNGWQYFWSVQHDIDGLIDLTGGKNRFAEKLDSMFTYHPAADEELPIFSTGMIGQYAHGNEPSHHVIYLFNAVGQQNLTQKYVAKVMNELYKNEPAGLCGNEDCGQMSAWYVFSAMGFYPVNPVSGKYEIGTPLFPEMKLHLANGKTFTVLAPKVSKENIYIQSIKVDGQPYNKTYLTHEQIMSGTTVEFEMGNTPLVEVEFEEQTQ
For the protein B6, in series [1] (enzyme Bt3994, pH 7.0), the Km is 3700 ± 430 µM, the kcat is 1.57 ± 0.0933 s⁻¹ and the kcat/Km came to 433 M⁻¹ s⁻¹.

B7: Bt3784 (Bacteroides thetaiotaomicron VPI-5482) (protein)
chain: MKTHFSFKHLLFIGGAVLYSMQISAVKNPVDYVSTLVGTQSKFELSTGNTYPATALPWGMNFWTPQTGKMGDGWAYTYNADKIRGFKQTHQPSPWMNDYGQFSIMPITGGLVFDQDQRASWFSHKAEVAKPYYYKVYLADHDVTTELVPTERAAMFRFTYPETKNAYVVIDAFDKGSYVKVIPEENKIIGYSTKNSGGVPENFKNYFVIQFDKPFTFTSGVKENNILPNETEVQGNHTGAIIGFATQKGEIVHARVASSFISYEQAELNLKELGKDSFDQLVTKGKDIWNREMSKVDVEDDNIDNLRTFYSCLYRSMLFPRSFYEIDAKGQVVHYSPYNGKVLPGYMFTDTGFWDTFRCLFPFLNLMYPSMNQKMQEGLVNAYLESGFLPEWASPGHRDCMVGNNSASVVADAYIKGLRGYDIETLWEALKHDANAHLRGTASGRLAYDAYNKLGYVPNNIGIGQNVARTLEYAYNDWTIYTLGKKLGKPASEIDIFKQRALNYKNVYHPKRKLMVGKDDKGVFNPKFDAVDWSGEFCEGNSWHWSFCVFHDPQGLIDLMGGKKEFNNMMDSVFVIPGKQGMESRGMIHEMREMQVMNMGQYAHGNQPIQHMVYLYNYSGEPWKAQHWVREIMDKLYTAGPDGYCGDEDNGQTSAWYVFSALGFYPVCPGTDQYILGTPLFKSAKLHLENGKTVTIKASNNNTDNRYVKDMKVNGKAFTRNYLTHDQLLKGANIQYQMSPTPNKQRGTTEKDIPYSLSFE
Consider B7, for which, in series [2] (enzyme Bt3784, pH 7.0), the kcat was determined as 0.45 ± 0.0917 s⁻¹ and the specificity constant (kcat/Km) is 183 M⁻¹ s⁻¹. In addition, in series [1] (enzyme Bt3784, pH 7.0), the kcat was found to be 0.08 ± 0.0065 s⁻¹ and the kcat/Km is 11.5 M⁻¹ s⁻¹.

A word on the Km: it is the concentration of substrate that gives half-maximal velocity. The term kcat denotes the maximal rate divided by the concentration of active sites. Broadly, the kcat/Km is the second-order rate constant that governs catalysis at low substrate concentration.

For the origin of these results see publication PMC3942423 (Nature chemical biology, 2009).
